Laboratory results from patent US20030143209A1 (AVENTIS PHARMA S A, published 2003).

Target: T1, CAR (Coxsackie and adenoviruses receptor) (human, UniProt P78310 20-365)
T1 sequence: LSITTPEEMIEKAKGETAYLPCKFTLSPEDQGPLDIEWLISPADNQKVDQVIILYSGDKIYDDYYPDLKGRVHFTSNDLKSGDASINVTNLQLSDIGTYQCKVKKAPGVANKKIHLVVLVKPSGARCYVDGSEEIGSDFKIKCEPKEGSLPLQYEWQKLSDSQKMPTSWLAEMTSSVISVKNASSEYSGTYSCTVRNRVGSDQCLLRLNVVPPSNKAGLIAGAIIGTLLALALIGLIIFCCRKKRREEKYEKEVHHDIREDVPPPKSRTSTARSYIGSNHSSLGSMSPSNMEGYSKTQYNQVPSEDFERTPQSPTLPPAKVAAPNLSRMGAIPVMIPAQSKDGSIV
Experiment: cell-based or functional assay

B1: vBS1: Ad5 virus with short-shafted fiber from Ad5 (deletion encompassing shaft repeats 4-16) (other)
chain: MKRARPSEDTFNPVYPYDTETGPPTVPFLTPPFVSPNGFQESPPGVLSLRLSEPLVTSNGMLALKMGNGLSLDEAGNLTSQNVTTVSPPLKKTKSNLDINYNKGLYLFTASNNSKKLEVNLSTAKGLMFDATAIAINAGDGLEFGSPNAPNTNPLKTKIGHGLEFDSNKAMVPKLGTGLSFDSTGAITVGNKNNDKLTLWTTPAPSPNCRLNAEKDAKLTLVLTKCGSQILATVSVLAVKGSLAPISGTVQSAHLIIRFDENGVLLNNSFLDPEYWNFRNGDLTEGTAYTNAVGFMPNLSAYPKSHGKTAKSNIVSQVYLNGDKTKPVTLTITLNGTQETGDTTPSAYSMSFSWDWSGHNYINEIFATSSYTFSYIAQE
- cell transduction of 293 cells (specific lacZ expression, moi 50 VP/cell): 10 fold
